Measurements as given in patent publication EP4361176A1.
Numbering of substitutions follows the chain as printed.

T1: hCTLA4-His-BAP (human)
T1 sequence (chain, biotin on the BAP-tag): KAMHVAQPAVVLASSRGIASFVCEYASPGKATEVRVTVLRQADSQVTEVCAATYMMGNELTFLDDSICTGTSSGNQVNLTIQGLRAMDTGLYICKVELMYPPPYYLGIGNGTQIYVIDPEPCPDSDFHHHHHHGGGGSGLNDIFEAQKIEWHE

B1: ABAM005 (antibody, human IgG1, V domains shown)
VH: EVQLVESGGDLVKPGGGLRLSCAASGFTFSGYTMNWVRQAPGKGLEWVSSISSRSNYISYADSVKGRFTISRDNAKNSLYLQMNSLRAEDTAVYYCARYGALNHMLWVFDYWGQGTLVTVSS
VL: QSALTQPPSASGSPGQTVTISCTGTSTDVGAYNYVSWYQQHPGKAPKLMIYSTSKRPSGVPDRFSGSKSGNTASLTVSGLQAEDEADYFCSLYRYAQGVVFGGGTKLTVL
B2: ABAM006 (antibody, human IgG1, V domains shown)
VH: EVQLVESGGDLVKPGGGLRLSCAASGFTFSTYTMHWVRQAPGKGLEWVSSISSRSGHAHYADSVKGRFTISRDNAKNSLYLQMNSLRAEDTAVYYCARFGRKKKRLWVFDYWGQGTLVTVSS
VL: B1 VL with A31F, S52Q, T53N, L92T, Y93N, Y95A, Q97R, G98S, V100A
B3: 04H1389-Ks461/04L1615-k0MT//04H1389-Hs443/04L1615-k0MT (antibody, human IgG1, kappa)
heavy 1: EVQLVESGGGLVKPGGSLRLSCAASGFTFSSKTMNWVRQAPGKGLEWVSSISTQSHYIYYAESVKGRFTISRDNAKNSLYLQMNSLRAEDTAVYYCARYGKREDMLWVFDYWGQGTLVTVSSASTKGPSVFPLAPSSKSTSGGTAALGCLVKDYFPEPVTVSWNSGALTSGVHTFPAVLQSSGLYSLSSVVTVPSSSLGTQTYICNVNHKPSNTKVDKRVEPKSCDKTHTCPPCPAPEFQWGPMVFLFPPKPKDVLMISRTPEVTCVVVDVSDEEPEVKFNWYVDGVEVHNAKTKPREEQYNATYRVVSVLPVLHQDWLNGKEYKCKVSNDALPAPEEKTISKAKGQPREPQVYTLPPSREEMTKNQVSLWCLVKGFYPSDIAVEWESNGQPENNYKTTPPVLDSDGSFFLYSKLTVDKSRWQQGNVFSCSVMHEALHNHYTQKSLSLSP
heavy 2: B3 heavy 1 with F239L, Q240L, W241A, M244S, D273H, K339E, W371S, L373A, Y412V
light: DIVMTQSPLSLPVTPGEPASISCQGPSTGVGDYNYVHWYQQKPGQAPRLLIYFTSKKPSGVPDRFSGSGSGTDFTLKISRVEAEDVGVYYCQTYAAPLGPMFGQGTKLEIKRTVAAPSVFIFPPSDEQLKSGTASVVCLLNNFYPREAKVQWKVDNALQSGNSQESVTEQDSKDSTYSLSSTLTLSKADYEKHKVYACEVTHQGLSSPVTKSFNRGEC
B4: 04H1389-Km462/04L1615-k0MT//04H1389-Hm445/04L1615-k0MT (antibody, human IgG1, kappa)
heavy 1: B3 heavy 1 with E337I, Y354C
heavy 2: EVQLVESGGGLVKPGGSLRLSCAASGFTFSSKTMNWVRQAPGKGLEWVSSISTQSHYIYYAESVKGRFTISRDNAKNSLYLQMNSLRAEDTAVYYCARYGKREDMLWVFDYWGQGTLVTVSSASTKGPSVFPLAPSSKSTSGGTAALGCLVKDYFPEPVTVSWNSGALTSGVHTFPAVLQSSGLYSLSSVVTVPSSSLGTQTYICNVNHKPSNTKVDKRVEPKSCDKTHTCPPCPAPELLAGPSVFLFPPKPKDVLMISRTPEVTCVVVDVSHEEPEVKFNWYVDGVEVHNAKTKPREEQYNATYRVVSVLPVLHQDWLNGKEYKCKVSNDALPKPDEETISKAKGQPREPQVYTLPPSRCEMTKNQVSLSCAVKGFYPSDIAVEWESNGQPENNYKTTPPVLDSDGSFFLVSKLTVDKSRWQQGNVFSCSVMHEALHNHYTQKSLSLSP
light: B3 light
B5: 04H1389-Km461/04L1615-k0MT//04H1389-Hm443/04L1615-k0MT (antibody, human IgG1, kappa)
heavy 1: B3 heavy 1 with Y354C
heavy 2: B4 heavy 2 with K335A, D337E
light: B3 light
B6: 04H1389-Ks462/04L1615-k0MT//04H1389-Hs445/04L1615-k0MT (antibody, human IgG1, kappa)
heavy 1: B3 heavy 1 with E337I
heavy 2: B4 heavy 2 with C361E
light: B3 light
B7: 04H1389-Ks473/04L1615-k0MT//04H1389-Hs482/04L1615-k0MT (antibody)
heavy 1: B3 heavy 1 with E337I, N439A, Y441T, Q443R, S445E
heavy 2: B4 heavy 2 with C361E, N439A, Y441T, Q443R, S445E
light: B3 light
B8: 04H1389-Km481/04L1615-k0MT//04H1389-Hm498/04L1615-k0MT (antibody)
heavy 1: B3 heavy 1 with Y354C, N439A, Y441T, Q443R, S445E
heavy 2: B4 heavy 2 with K335A, D337E, N439A, Y441T, Q443R, S445E
light: B3 light
B9: 04H1389-G1m/04L1086-lam1 (antibody, human IgG1, lambda, V domains shown)
VH: EVQLVESGGGLVKPGGSLRLSCAASGFTFSSKTMNWVRQAPGKGLEWVSSISTQSHYIYYAESVKGRFTISRDNAKNSLYLQMNSLRAEDTAVYYCARYGKREDMLWVFDYWGQGTLVTVSS
VL: QSALTQPPSASGSPGQTVTISCDGPSTGVGDYNYVHWYQQHPGKAPKLMIYFTSKKPSGVPDRFSGSKSGNTASLTVSGLQAEDEADYFCQTYAAPLGPMFGGGTKLTVLG
B10: 04H1382-G1m/04L1086-lam1 (antibody, human IgG1, lambda, V domains shown)
VH: B9 VH with E62R
VL: B9 VL
B11: ABAM001 (antibody, human IgG1, V domains shown)
VH: B2 VH with T31S, G56R, H57Y, A58K, H59Y, R101I, K103N, L106N, F109L
VL: B1 VL with S52Q, T53V, R94T, Y95T, A96R, Q97P, G98Q, V99L, V100A
B12: ABAM003 (antibody, human IgG1, V domains shown)
VH: B1 VH with N35H, N56R, I58A, Y99F, A101I, L102K, M105L, L106N
VL: QSALTQPPSASGSPGQTVTISCTGTSSDVGDYNYVSWYQQHPGKAPKLMIYGVSKRPSGVPDRFSGSKSGNTASLTVSGLQAEDEADYFCSTVSTSHSPVFGGGTKLTVL
B13: ABAM002 (antibody, human IgG1, V domains shown)
VH: B1 VH with G31S, N56T, I58A, S59H, Y99F, A101G, L102R, N103G, M105L
VL: B12 VL with S27T, D31T, G52Q, V53G, T95G, S96D, H97F, S98H, P99V, V100A
B14: 04H1654-KT462/04L1610-lam1//04H1656-HT441/04L1610-lam1 (antibody, human IgG1, lambda)
heavy 1: B3 heavy 1 with E1Q, L11V, K13Q, E62R, K65R, E337I, E361K, W371T
heavy 2: QVQLVESGGGVVQPGGSLRLSCAASGFTFSSKTMNWVRQAPGKGLEWVSSISTQSHYIYYAESVRGRFTISRDNAKNSLYLQMNSLRAEDTAVYYCARYGAREDMLWVFDYWGQGTLVTVSSASTKGPSVFPLAPSSKSTSGGTAALGCLVKDYFPEPVTVSWNSGALTSGVHTFPAVLQSSGLYSLSSVVTVPSSSLGTQTYICNVNHKPSNTKVDKRVEPKSCDKTHTCPPCPAPELLAGPSVFLFPPKPKDVLMISRTPEVTCVVVDVSHEEPEVKFNWYVDGVEVHNAKTKPREEQYNATYRVVSVLPVLHQDWLNGKEYKCKVSNDALPAPIEETISKAKGQPREPQVYTLPPSREEMTKNQVSLTCLVKGFYPSDIAVEWESNGQPENNYKTTPPVLDSDGSFFLYSKLTVDKSRWQQGNVFSCSVMHEALHNHYTQESLSLSP
light: QSALTQPPSASGSPGQSVTISCEGPSTGVGDYNWVHWYQQHPGKAPKLMIYFTSKKPSGVPDRFSGSKSGNTASLTVSGLQAEDEADYYCQTYAAPLGPMFGGGTKLTVLGQPKAAPSVTLFPPSSEELQANKATLVCLISDFYPGAVTVAWKADSSPVKAGVETTTPSKQSNNKYAASSYLSLTPEQWKSHRSYSCQVTHEGSTVEKTVAPTECS
B15: 04H1654-KT473/04L1610-lam1//04H1656-HT451/04L1610-lam1 (antibody)
heavy 1: QVQLVESGGGVVQPGGSLRLSCAASGFTFSSKTMNWVRQAPGKGLEWVSSISTQSHYIYYARSVRGRFTISRDNAKNSLYLQMNSLRAEDTAVYYCARYGKREDMLWVFDYWGQGTLVTVSSASTKGPSVFPLAPSSKSTSGGTAALGCLVKDYFPEPVTVSWNSGALTSGVHTFPAVLQSSGLYSLSSVVTVPSSSLGTQTYICNVNHKPSNTKVDKRVEPKSCDKTHTCPPCPAPEFQWGPMVFLFPPKPKDVLMISRTPEVTCVVVDVSDEEPEVKFNWYVDGVEVHNAKTKPREEQYNATYRVVSVLPVLHQDWLNGKEYKCKVSNDALPAPIEKTISKAKGQPREPQVYTLPPSRKEMTKNQVSLTCLVKGFYPSDIAVEWESNGQPENNYKTTPPVLDSDGSFFLYSKLTVDKSRWQQGNVFSCSVMHEALHAHTTRKELSLSP
heavy 2: B14 heavy 2 with N439A, Y441T, Q443R, S445E
light: B14 light

biological target: T1, hCTLA4-His-BAP (human); assay: IgG ELISA, 2.5 ug/mL IgG, 1 mM AMP

Row | 450 nm Absorbance | Binder
1 | 0.303 | B1
2 | 3 | B2

biological target: human FcγRIIb extracellular domain with C-terminal His-tag (human) (UniProt P31994); assay: SPR; binding amount / that of 04H1389-G1m/04L1615-k0MT
Sequence (P31994 43-217): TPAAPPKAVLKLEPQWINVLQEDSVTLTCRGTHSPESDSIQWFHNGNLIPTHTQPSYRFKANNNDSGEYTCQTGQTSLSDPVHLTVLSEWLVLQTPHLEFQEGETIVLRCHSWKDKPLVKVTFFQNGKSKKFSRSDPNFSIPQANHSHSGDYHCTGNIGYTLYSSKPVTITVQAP

Row | Relative binding amount | Binder
3 | 2.1 | B3
4 | 2.6 | B4
5 | 2.1 | B5
6 | 2.6 | B6
7 | 2.3 | B7
8 | 1.9 | B8

biological target: human CTLA4 (soluble analyte of the Biacore assays of Reference Example 3-3) (human) (UniProt P16410); assay: SPR Biacore T200, 10 uM ATP

Row | fold enhanced binding vs parent 04H1207-G1m/04L1086-lam1 [fold] | fold enhanced binding vs parent 04H1208-G1m/04L1086-lam1 [fold] | Binder
9 | 10 |  | B9
10 |  | 10 | B10

biological target: T1, hCTLA4-His-BAP (human); assay: IgG ELISA, 2.5 ug/mL IgG, no AMP

Row | 450 nm Absorbance | Binder
11 | 3.46 | B11
12 | 3.18 | B12
13 | 0.069 | B1
14 | 0.776 | B2
15 | 0.139 | B13

biological target: human FcγRIIb extracellular domain with C-terminal His-tag (human) (UniProt P31994); assay: SPR; binding amount / that of 04H1656-G1m/04L1610-lam1

Row | Relative binding amount | Binder
16 | 1.7 | B14
17 | 1.5 | B15

biological target: human FcγRIIb extracellular domain with C-terminal His-tag (human) (UniProt P31994); assay: SPR (Biacore T200), FcγRIIb, amount bound per unit captured antibody

Row | Binding amount | Binder
18 | 0.014 | B14
19 | 0.024 | B3
20 | 0.029 | B4
21 | 0.024 | B5
22 | 0.03 | B6
23 | 0.012 | B15
24 | 0.026 | B7
25 | 0.021 | B8

biological target: T1, hCTLA4-His-BAP (human); assay: IgG ELISA, absorbance with / without AMP

Row | S/N | Binder
26 | > 1.45 | B11
27 | > 1.57 | B12
28 | 4.46 | B1
29 | 3.86 | B2
30 | > 36 | B13

biological target: T1, hCTLA4-His-BAP (human); assay: IgG ELISA, 2.5 ug/mL IgG, 1 mM AMP; overflow set to 5.00

Row | 450 nm Absorbance | Binder
31 | > 5 | B11
32 | > 5 | B12
33 | > 5 | B13
